Reference: article PMC11437124 (Nature Communications, 2024)
One block for each binder: values may come before it.

Key:
[1] = biological target: T1, 18-mer TREM2 peptide (148-165) (Homo sapiens, UniProt Q9NZC2); assay: crystal structure
T1 chain: ESFEDAHVEHSISRSLLE

[2] = biological target: T2, peptide with the entire TREM2 stalk region (Homo sapiens, UniProt Q9NZC2, biotinylated at the amino-terminus); assay: ELISA
T2 chain: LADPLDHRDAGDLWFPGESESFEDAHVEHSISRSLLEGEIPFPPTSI

TREM2 peptide 149-168 = biological target: T3, TREM2 peptide 149-168 (Homo sapiens, UniProt Q9NZC2, biotinylated at the amino-terminus); assay: ELISA
T3 chain: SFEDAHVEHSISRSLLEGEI

[3] = biological target: T4, TREM2 peptide 149-161, wild type (Homo sapiens, UniProt Q9NZC2); assay: BLI
T4 chain: SFEDAHVEHSISR

[4] = biological target: these 4 clones (3.10C2, 3.27H7, 3.18E5 and 3.50G1), SPR screening; assay: SPR

B1: huPara.09 Fab fragment (Fab, V domains shown)
VH: EVQLVESGGGLVQPGGSLKLSCATSGFPFSNVWLHWVRQASGKGPEWVAHIKAKSDNYATYYAESVKGRFTISRDDSKNTVYLQMNSLKTEDTAVYYCTDILEYWGQGTLVTVSS
VL: DVVMTQSPLSLPVTPGEPASISCRSSRSLLTSKGITSLYWYLQKPGQSPQLLIYRMSNLASGIPDRFSGSGSGTDFTLKISRVEAEDVGVYYCAQFLVYPYTFGPGTKVEIK
binding result [1]: binds

B3: Fab fragment of antibody Para.09 (Fab, V domains shown)
VH: EVQLVETGGSLVQPGKSLRLTCATSGFPFSNVWLHWVRQSPEKHPEWVAHIKAKSDNYATYYAESVKGRFTISRDDSKSSVFLQMNSLKEEDTAIYYCTDILEYWGQGTLVTVSS
VL: DTVLTQAPLSLSVTPGESASISCRSSKSLLGVRDITSLYWYLQKPGKSPQLLIYRMSNLASGVPDRFSGSGSETDFTLKISEVETEDVGVYYCAQFLRYPYTFGPGTKLELK
binding result [3]: binds

B5: human TREM2 extracellular domain (ECD) (domain or fragment)
chain: HNTTVFQGVAGQSLQVSCPYDSMKHWGRRKAWCRQLGEKGPCQRVVSTHNLWLLSFLRRWNGSTAITDDTLGGTLTITLRNLQPHDAGLYQCQSLHGSEADTLRKVLVEVLADPLDHRDAGDLWFPGESESFEDAHVEHSISRSLLEGEIPFPPTS
Kd [4]: 140 to 670 pM

Further lines, results first:

binding result [2]: binds
binding result (TREM2 peptide 149-168): binds
B2: antibody Para.09 (IgG, with the light chain of 3.10C2) (antibody, V domains shown)
VH: B3 VH
VL: B3 VL

binding result [3]: binds
B4: Fab fragment of antibody 3.10C2 (Fab, V domains shown)
VH: EVQLVETGGSLVQPGKSLKLTCATSGFPFSNVWMHWVRQSPEKQLEWIAHIKAKSDNYATYYAESVKGRFTISRDDSKTSIYLQMNSLKEDDTAIYYCTGLDYWGQGVMVTVSS
VL: B3 VL
